Holding throughout (assay): cell-based or functional assay
In assay [1] the target is human PD-1 on cells (HEK-PD-1 reporter cells; activated PBMC) (human, UniProt Q15116 25-288).
The target in assay [2] is T1, human IL-2 receptor (IL-2Rα, IL-2Rβ, IL-2Rγ) (human, UniProt P01589 22-272; P14784 27-551; P31785 23-369).
T1 sequence (looked up) 1: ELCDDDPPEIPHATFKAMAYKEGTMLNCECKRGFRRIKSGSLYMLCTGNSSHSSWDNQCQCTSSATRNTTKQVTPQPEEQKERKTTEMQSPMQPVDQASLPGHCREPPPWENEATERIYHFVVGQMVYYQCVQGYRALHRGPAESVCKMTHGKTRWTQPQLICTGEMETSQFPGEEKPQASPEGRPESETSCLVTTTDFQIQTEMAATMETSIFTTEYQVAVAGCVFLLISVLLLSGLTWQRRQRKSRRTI
T1 sequence (looked up) 2: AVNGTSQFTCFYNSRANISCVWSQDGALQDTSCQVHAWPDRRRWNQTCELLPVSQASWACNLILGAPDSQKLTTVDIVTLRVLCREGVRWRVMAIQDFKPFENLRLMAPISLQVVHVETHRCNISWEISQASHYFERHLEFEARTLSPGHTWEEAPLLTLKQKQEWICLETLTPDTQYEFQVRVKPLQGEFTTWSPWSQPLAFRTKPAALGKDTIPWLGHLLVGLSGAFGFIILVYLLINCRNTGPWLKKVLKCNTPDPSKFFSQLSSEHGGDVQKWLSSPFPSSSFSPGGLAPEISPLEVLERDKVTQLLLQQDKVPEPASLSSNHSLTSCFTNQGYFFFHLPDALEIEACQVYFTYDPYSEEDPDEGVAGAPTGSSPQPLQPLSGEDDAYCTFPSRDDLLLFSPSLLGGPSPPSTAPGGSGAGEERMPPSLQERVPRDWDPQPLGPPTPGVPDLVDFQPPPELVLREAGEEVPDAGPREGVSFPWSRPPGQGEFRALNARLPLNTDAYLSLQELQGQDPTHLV
T1 sequence (looked up) 3: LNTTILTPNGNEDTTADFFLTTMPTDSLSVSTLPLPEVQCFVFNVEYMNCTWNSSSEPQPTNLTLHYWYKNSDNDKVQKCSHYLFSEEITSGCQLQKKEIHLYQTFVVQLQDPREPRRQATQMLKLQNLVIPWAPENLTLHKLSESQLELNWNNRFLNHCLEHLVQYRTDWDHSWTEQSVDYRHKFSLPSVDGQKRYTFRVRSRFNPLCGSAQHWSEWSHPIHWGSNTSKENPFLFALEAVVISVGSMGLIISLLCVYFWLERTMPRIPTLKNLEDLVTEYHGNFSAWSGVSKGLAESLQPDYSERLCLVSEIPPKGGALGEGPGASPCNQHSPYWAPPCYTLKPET

The target in assay [3] is human IL-12 receptor complex (IL-12Rβ1 and IL-12Rβ2) (human, UniProt P42701 24-662; Q99665 24-862).
human IL-12 receptor complex (IL-12Rβ1 and IL-12Rβ2), sequence (Q99665 24-862, chain 2 of 2, other chains not shown): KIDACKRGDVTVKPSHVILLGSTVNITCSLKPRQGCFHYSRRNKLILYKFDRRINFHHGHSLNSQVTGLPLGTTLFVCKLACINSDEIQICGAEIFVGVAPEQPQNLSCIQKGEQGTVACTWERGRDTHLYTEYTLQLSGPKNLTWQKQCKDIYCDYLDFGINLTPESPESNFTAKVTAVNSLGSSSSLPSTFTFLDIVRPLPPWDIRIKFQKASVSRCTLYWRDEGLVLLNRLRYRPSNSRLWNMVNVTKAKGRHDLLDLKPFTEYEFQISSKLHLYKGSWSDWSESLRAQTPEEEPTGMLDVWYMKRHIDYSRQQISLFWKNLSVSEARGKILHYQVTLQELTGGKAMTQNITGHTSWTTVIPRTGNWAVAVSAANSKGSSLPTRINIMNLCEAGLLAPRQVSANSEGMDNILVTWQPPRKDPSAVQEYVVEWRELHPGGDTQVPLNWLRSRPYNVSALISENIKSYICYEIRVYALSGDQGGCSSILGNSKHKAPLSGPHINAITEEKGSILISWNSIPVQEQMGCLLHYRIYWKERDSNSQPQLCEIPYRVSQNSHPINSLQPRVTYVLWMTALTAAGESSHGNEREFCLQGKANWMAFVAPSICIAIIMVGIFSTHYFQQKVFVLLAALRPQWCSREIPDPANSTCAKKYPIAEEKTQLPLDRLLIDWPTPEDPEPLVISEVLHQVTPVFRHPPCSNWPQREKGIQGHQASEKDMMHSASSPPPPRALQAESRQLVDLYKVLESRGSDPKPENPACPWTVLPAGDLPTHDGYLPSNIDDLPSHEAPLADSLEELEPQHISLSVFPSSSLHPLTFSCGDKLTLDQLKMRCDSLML

human PD-1 on cells (HEK-PD-1 reporter cells; activated PBMC), sequence (Q15116 25-288): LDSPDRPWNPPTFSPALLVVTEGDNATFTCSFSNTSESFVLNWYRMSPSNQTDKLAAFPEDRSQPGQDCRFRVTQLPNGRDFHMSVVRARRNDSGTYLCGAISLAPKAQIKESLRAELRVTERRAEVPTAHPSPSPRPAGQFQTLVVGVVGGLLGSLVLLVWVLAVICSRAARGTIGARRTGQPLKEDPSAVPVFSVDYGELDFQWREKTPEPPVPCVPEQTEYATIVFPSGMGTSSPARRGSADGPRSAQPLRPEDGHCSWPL

B1: PD-L1(mut2)-Fc/IL-12(E59A/F60A) (IL-12 at C' of Fc) (Fc fusion)
chain 1: FTVTVPKDLYVVEYGSNMTIECKFPVEKQLDLAALQVYWMMEDKNIIQFVHGEEDLKVQHSSYRQRARLLKDQLSLGNAALQITDVKLQDAGVYTCLIAYKGADYKRITVKVNAPYNKINQRILVVDPVTSEHELTCQAEGYPKAEVIWTSSDHQVLSGKTTTTNSKREEKLFNVTSTLRINTTTNEIFYCTFRRLDPEENHTAELVIPELPLAHPPNERGGGGSGGGDKTHTCPPCPAPEDEGGPSVFLFPPKPKDTLMISRTPEVTCVVVDVSHEDPEVKFNWYVDGVEVHNAKTKPREEQYNSTYRVVSVLTVLHQDWLNGKEYKCKVSNKALPAPIEKTISKAKGQPREPQVYVYPPSREEMTKNQVSLTCLVKGFYPSDIAVEWESNGQPENNYKTTPPVLDEDGSFALVSKLTVDKSRWQQGNVFSCSVMHEALHNHYTQKSLSLSPGKGGGGSGGGIWELKKDVYVVELDWYPDAPGEMVVLTCDTPEEDGITWTLDQSSEVLGSGKTLTIQVKAAGDAGQYTCHKGGEVLSHSLLLLHKKEDGIWSTDILKDQKEPKNKTFLRCEAKNYSGRFTCWWLTTISTDLTFSVKSSRGSSDPQGVTCGAATLSAERVRGDNKEYEYSVECQEDSACPAAEESLPIEVMVDAVHKLKYENYTSSFFIRDIIKPDPPKNLQLKPLKNSRQVEVSWEYPDTWSTPHSYFSLTFCVQVQGKSKREKKDRVFTDKTSATVICRKNASISVRAQDRYYSSSWSEWASVPCSGGGGSGGGSGGGGSRNLPVATPDPGMFPCLHHSQNLLRAVSNMLQKARQTLEFYPCTSEEIDHEDITKDKTSTVEACLPLELTKNESCLNSRETSFITNGSCLASRKTSFMMALCLSSIYEDLKMYQVEFKTMNAKLLMDPKRQIFLDQNMLAVIDELMQALNFNSETVPQKSSLEEPDFYKTKIKLCILLHAFRIRAVTIDRVMSYLNAS
chain 2: FTVTVPKDLYVVEYGSNMTIECKFPVEKQLDLAALQVYWMMEDKNIIQFVHGEEDLKVQHSSYRQRARLLKDQLSLGNAALQITDVKLQDAGVYTCLIAYKGADYKRITVKVNAPYNKINQRILVVDPVTSEHELTCQAEGYPKAEVIWTSSDHQVLSGKTTTTNSKREEKLFNVTSTLRINTTTNEIFYCTFRRLDPEENHTAELVIPELPLAHPPNERGGGGSGGGDKTHTCPPCPAPEKKGGPSVFLFPPKPKDTLMISRTPEVTCVVVDVSHEDPEVKFNWYVDGVEVHNAKTKPREEQYNSTYRVVSVLTVLHQDWLNGKEYKCKVSNKALPAPIEKTISKAKGQPREPQVYVLPPSREEMTKNQVSLLCLVKGFYPSDIAVEWESNGQPENRYMTWPPVLDSDGSFFLYSKLTVDKSRWQQGNVFSCSVMHEALHNHYTQKSLSLSPGK
On to B1, for which, in assay [1], the “IL-2 signal transduction, HEK-IL-2-PD-1” value is less than 0.1% and the “IL-12 signal transduction, HEK-IL-12-PD-1” value was 25%. Also, the “IL-2 signal transduction, HEK-IL-2” value in assay [2] was less than 0.1%. Besides, the “IL-12 signal transduction, HEK-IL-12” value in assay [3] came out at 1%.

B2: IL-2(R38D/K43E/E61R/Q126T)/PD-L1(mut2)-Fc/IL-12(E59A/F60A) (Fc fusion)
chain 1: FTVTVPKDLYVVEYGSNMTIECKFPVEKQLDLAALQVYWMMEDKNIIQFVHGEEDLKVQHSSYRQRARLLKDQLSLGNAALQITDVKLQDAGVYTCLIAYKGADYKRITVKVNAPYNKINQRILVVDPVTSEHELTCQAEGYPKAEVIWTSSDHQVLSGKTTTTNSKREEKLFNVTSTLRINTTTNEIFYCTFRRLDPEENHTAELVIPELPLAHPPNERGGGGSGGGDKTHTCPPCPAPEDEGGPSVFLFPPKPKDTLMISRTPEVTCVVVDVSHEDPEVKFNWYVDGVEVHNAKTKPREEQYNSTYRVVSVLTVLHQDWLNGKEYKCKVSNKALPAPIEKTISKAKGQPREPQVYVYPPSREEMTKNQVSLTCLVKGFYPSDIAVEWESNGQPENNYKTTPPVLDEDGSFALVSKLTVDKSRWQQGNVFSCSVMHEALHNHYTQKSLSLSPGKGGGGSGGGIWELKKDVYVVELDWYPDAPGEMVVLTCDTPEEDGITWTLDQSSEVLGSGKTLTIQVKAAGDAGQYTCHKGGEVLSHSLLLLHKKEDGIWSTDILKDQKEPKNKTFLRCEAKNYSGRFTCWWLTTISTDLTFSVKSSRGSSDPQGVTCGAATLSAERVRGDNKEYEYSVECQEDSACPAAEESLPIEVMVDAVHKLKYENYTSSFFIRDIIKPDPPKNLQLKPLKNSRQVEVSWEYPDTWSTPHSYFSLTFCVQVQGKSKREKKDRVFTDKTSATVICRKNASISVRAQDRYYSSSWSEWASVPCSGGGGSGGGSGGGGSRNLPVATPDPGMFPCLHHSQNLLRAVSNMLQKARQTLEFYPCTSEEIDHEDITKDKTSTVEACLPLELTKNESCLNSRETSFITNGSCLASRKTSFMMALCLSSIYEDLKMYQVEFKTMNAKLLMDPKRQIFLDQNMLAVIDELMQALNFNSETVPQKSSLEEPDFYKTKIKLCILLHAFRIRAVTIDRVMSYLNAS
chain 2: FTVTVPKDLYVVEYGSNMTIECKFPVEKQLDLAALQVYWMMEDKNIIQFVHGEEDLKVQHSSYRQRARLLKDQLSLGNAALQITDVKLQDAGVYTCLIAYKGADYKRITVKVNAPYNKINQRILVVDPVTSEHELTCQAEGYPKAEVIWTSSDHQVLSGKTTTTNSKREEKLFNVTSTLRINTTTNEIFYCTFRRLDPEENHTAELVIPELPLAHPPNERGGGSGAPTSSSTKKTQLQLEHLLLDLQMILNGINNYKNPKLTDMLTFEFYMPKKATELKHLQCLERELKPLEEVLNLAQSKNFHLRPRDLISNINVIVLELKGSETTFMCEYADETATIVEFLNRWITFCTSIISTLTGGGGSGGGDKTHTCPPCPAPEKKGGPSVFLFPPKPKDTLMISRTPEVTCVVVDVSHEDPEVKFNWYVDGVEVHNAKTKPREEQYNSTYRVVSVLTVLHQDWLNGKEYKCKVSNKALPAPIEKTISKAKGQPREPQVYVLPPSREEMTKNQVSLLCLVKGFYPSDIAVEWESNGQPENRYMTWPPVLDSDGSFFLYSKLTVDKSRWQQGNVFSCSVMHEALHNHYTQKSLSLSPGK
As to B2, in assay [1], the “IL-2 signal transduction, HEK-IL-2-PD-1” value was determined as 31% and the “IL-12 signal transduction, HEK-IL-12-PD-1” value is 30%. Moreover, the “IL-2 signal transduction, HEK-IL-2” value in assay [2] was determined as 3%. In addition, the “IL-12 signal transduction, HEK-IL-12” value in assay [3] was 1%.

B3: IL-2(L18R/Q22E/R38D/K43E/E61R)/PD-L1(mut2)-Fc/IL-12(E59A/F60A) (Fc fusion)
chain 1: FTVTVPKDLYVVEYGSNMTIECKFPVEKQLDLAALQVYWMMEDKNIIQFVHGEEDLKVQHSSYRQRARLLKDQLSLGNAALQITDVKLQDAGVYTCLIAYKGADYKRITVKVNAPYNKINQRILVVDPVTSEHELTCQAEGYPKAEVIWTSSDHQVLSGKTTTTNSKREEKLFNVTSTLRINTTTNEIFYCTFRRLDPEENHTAELVIPELPLAHPPNERGGGGSGGGDKTHTCPPCPAPEDEGGPSVFLFPPKPKDTLMISRTPEVTCVVVDVSHEDPEVKFNWYVDGVEVHNAKTKPREEQYNSTYRVVSVLTVLHQDWLNGKEYKCKVSNKALPAPIEKTISKAKGQPREPQVYVYPPSREEMTKNQVSLTCLVKGFYPSDIAVEWESNGQPENNYKTTPPVLDEDGSFALVSKLTVDKSRWQQGNVFSCSVMHEALHNHYTQKSLSLSPGKGGGGSGGGIWELKKDVYVVELDWYPDAPGEMVVLTCDTPEEDGITWTLDQSSEVLGSGKTLTIQVKAAGDAGQYTCHKGGEVLSHSLLLLHKKEDGIWSTDILKDQKEPKNKTFLRCEAKNYSGRFTCWWLTTISTDLTFSVKSSRGSSDPQGVTCGAATLSAERVRGDNKEYEYSVECQEDSACPAAEESLPIEVMVDAVHKLKYENYTSSFFIRDIIKPDPPKNLQLKPLKNSRQVEVSWEYPDTWSTPHSYFSLTFCVQVQGKSKREKKDRVFTDKTSATVICRKNASISVRAQDRYYSSSWSEWASVPCSGGGGSGGGSGGGGSRNLPVATPDPGMFPCLHHSQNLLRAVSNMLQKARQTLEFYPCTSEEIDHEDITKDKTSTVEACLPLELTKNESCLNSRETSFITNGSCLASRKTSFMMALCLSSIYEDLKMYQVEFKTMNAKLLMDPKRQIFLDQNMLAVIDELMQALNFNSETVPQKSSLEEPDFYKTKIKLCILLHAFRIRAVTIDRVMSYLNAS
chain 2: FTVTVPKDLYVVEYGSNMTIECKFPVEKQLDLAALQVYWMMEDKNIIQFVHGEEDLKVQHSSYRQRARLLKDQLSLGNAALQITDVKLQDAGVYTCLIAYKGADYKRITVKVNAPYNKINQRILVVDPVTSEHELTCQAEGYPKAEVIWTSSDHQVLSGKTTTTNSKREEKLFNVTSTLRINTTTNEIFYCTFRRLDPEENHTAELVIPELPLAHPPNERGGGSGAPTSSSTKKTQLQLEHLRLDLEMILNGINNYKNPKLTDMLTFEFYMPKKATELKHLQCLERELKPLEEVLNLAQSKNFHLRPRDLISNINVIVLELKGSETTFMCEYADETATIVEFLNRWITFCQSIISTLTGGGGSGGGDKTHTCPPCPAPEKKGGPSVFLFPPKPKDTLMISRTPEVTCVVVDVSHEDPEVKFNWYVDGVEVHNAKTKPREEQYNSTYRVVSVLTVLHQDWLNGKEYKCKVSNKALPAPIEKTISKAKGQPREPQVYVLPPSREEMTKNQVSLLCLVKGFYPSDIAVEWESNGQPENRYMTWPPVLDSDGSFFLYSKLTVDKSRWQQGNVFSCSVMHEALHNHYTQKSLSLSPGK
With B3, in assay [1], the “IL-2 signal transduction, HEK-IL-2-PD-1” value was 32% and the “IL-12 signal transduction, HEK-IL-12-PD-1” value is 27%. In addition, the “IL-2 signal transduction, HEK-IL-2” value in assay [2] was determined as 3%. Besides, the “IL-12 signal transduction, HEK-IL-12” value in assay [3] is 2%.

The record behind these values is patent US20240392004A1 (IMMUNOWAKE, published 2024).
